Measurements: patent US20050261472A1, “Binding moieties for fibrin” (Dyax Corp., priority 1999, published 2005)
Bridge positions count the residues as written; N and C are the ends. Peptide text beside a SMILES is read from it.

T1: fibrin (Homo sapiens, UniProt P02671+P02675+P02679)
T1 construct: Thrombin cleavage at the Arg16-Arg17 bond in the Ax chains and at the Arg14-Gly15 bond on the BP chains releases fibrinopeptides A and B; host or cells: fibrinogen solution clotted with thrombin in 96-well plates and dried at 37 C
T1 sequence (P02671 36-629 limits assumed): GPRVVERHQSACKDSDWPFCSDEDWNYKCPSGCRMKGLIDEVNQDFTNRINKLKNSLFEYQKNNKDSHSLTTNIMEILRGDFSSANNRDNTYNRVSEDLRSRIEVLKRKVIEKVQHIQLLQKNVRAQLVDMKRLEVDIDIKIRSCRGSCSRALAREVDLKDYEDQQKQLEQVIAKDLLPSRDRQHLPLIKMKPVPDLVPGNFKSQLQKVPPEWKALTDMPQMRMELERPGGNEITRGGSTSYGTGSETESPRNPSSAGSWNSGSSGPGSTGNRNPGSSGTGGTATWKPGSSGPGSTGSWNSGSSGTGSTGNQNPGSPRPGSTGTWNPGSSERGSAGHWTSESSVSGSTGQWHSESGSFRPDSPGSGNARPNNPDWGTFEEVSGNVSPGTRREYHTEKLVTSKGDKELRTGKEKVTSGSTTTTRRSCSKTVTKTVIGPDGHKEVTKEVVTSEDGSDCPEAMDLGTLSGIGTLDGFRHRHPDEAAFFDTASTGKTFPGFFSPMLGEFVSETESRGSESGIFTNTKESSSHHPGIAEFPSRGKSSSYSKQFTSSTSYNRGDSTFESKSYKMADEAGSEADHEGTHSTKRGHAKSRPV
T1 sequence (P02675 45-491 limits assumed): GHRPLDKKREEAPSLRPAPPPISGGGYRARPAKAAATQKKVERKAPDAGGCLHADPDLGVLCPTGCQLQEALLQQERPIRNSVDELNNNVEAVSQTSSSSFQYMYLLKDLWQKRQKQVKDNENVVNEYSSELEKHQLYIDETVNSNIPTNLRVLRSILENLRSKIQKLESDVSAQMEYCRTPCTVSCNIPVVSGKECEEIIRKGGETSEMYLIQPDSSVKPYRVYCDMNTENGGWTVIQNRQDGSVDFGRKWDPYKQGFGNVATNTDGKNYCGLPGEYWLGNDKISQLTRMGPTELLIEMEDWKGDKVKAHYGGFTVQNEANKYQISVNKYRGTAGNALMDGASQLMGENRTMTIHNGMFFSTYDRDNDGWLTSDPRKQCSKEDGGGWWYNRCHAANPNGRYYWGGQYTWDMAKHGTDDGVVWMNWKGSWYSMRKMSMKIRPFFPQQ
T1 sequence (P02679 27-437 isoform P02679-2 limits assumed): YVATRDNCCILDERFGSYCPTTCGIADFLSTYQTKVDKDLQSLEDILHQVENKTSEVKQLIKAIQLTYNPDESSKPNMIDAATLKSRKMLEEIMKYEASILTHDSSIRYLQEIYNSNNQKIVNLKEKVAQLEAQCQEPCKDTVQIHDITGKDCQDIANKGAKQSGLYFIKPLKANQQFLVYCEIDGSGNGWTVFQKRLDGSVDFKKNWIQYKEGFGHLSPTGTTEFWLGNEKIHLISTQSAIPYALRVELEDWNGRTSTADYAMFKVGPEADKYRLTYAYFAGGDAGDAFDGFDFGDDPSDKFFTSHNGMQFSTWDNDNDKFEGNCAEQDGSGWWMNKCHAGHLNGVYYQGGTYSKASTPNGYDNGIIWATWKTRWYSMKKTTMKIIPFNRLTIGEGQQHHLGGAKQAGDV

T2: dried fibrin (Homo sapiens, UniProt P02671+P02675+P02679)
T2 construct: Thrombin cleavage at the Arg16-Arg17 bond in the Ax chains and at the Arg14-Gly15 bond on the BP chains releases fibrinopeptides A and B; host or cells: fibrinogen solution clotted with thrombin in 96-well plates and dried at 37 C
T2 sequence (P02671 36-629 limits assumed): T1 sequence (P02671 36-629 limits assumed)
T2 sequence (P02675 45-491 limits assumed): T1 sequence (P02675 45-491 limits assumed)
T2 sequence (P02679 27-437 isoform P02679-2 limits assumed): T1 sequence (P02679 27-437 isoform P02679-2 limits assumed)


Key:
fibrin = target: T1, fibrin; experiment: dried fibrin plate ELISA of phage isolates; assay type: binding; conditions: phage isolates from TN7 library; symbols not defined
Experimental: For screening libraries to isolate binding moieties for fibrin, two fibrin targets, i.e., synthetic fibrin clots and then a soluble fibrin fragment, DD(E), were prepared. To prepare fibrin for screening, dilute fibrin clots were formed in the wells of a 96-well plate, dried down to a thin layer, and then rehydrated prior to library screening. In a typical procedure, a 0.15 mg/ml fibrinogen solution was prepared in TBS buffer (50 mM Tris, 150 mM NaCl, pH 7.4). A solution containing 2 U/ml thrombin, 10 mM CaCl2, and 5 mM ε-aminocaproic acid in TBS was prepared. The fibrinogen solution and thrombin solution were mixed 1:1 in the wells of a 96-well plate, aliquoting 25 μL of each solution in each well (total volume=50 μL). The plates were evaporated to dryness by incubating them at 37° C. overnight. Just before a phage library was added to the dried fibrin target, the fibrin wells were washed three times for 10 minutes with phage blocking buffer (TBS containing 2 mM CaCl2, 0.1% Tween-20, and 0.1% human serum albumin (HSA)).
After five rounds of selection, the eluted phage were propagated and a portion plated to isolate phage plaques arising from individual clones. Ninety such clones were selected randomly, propagated, and tested individually for binding to fibrin in a dried fibrin plate assay. Dried fibrin plates were prepared as described above for the library screening. Phage samples (˜10^9 phage each) were incubated in the dried fibrin plate wells in binding buffer (50 mM Tris, 150 mM NaCl, 2 mM CaCl2, 0.05% Tween-20) containing 0.1% HSA. After 1 hour, the plates were washed 5 times with binding buffer. Anti-M13 antibody conjugated to horseradish peroxidase (Pharmacia) was added at 1/5000 dilution in binding buffer to the wells and incubated with the fibrin for 1 hour. The wells were again washed 5 times with binding buffer and the presence of the antibody/phage/fibrin complex was measured with HRP calorimetric reagents (3,3′,5,5′-tetrarnethylbenzidine (TMB) and H2O2). A high absorbance at 595 nm (due to oxidized TMB) was indicative of a tight phage/fibrin interaction, and phage clones corresponding to those wells were identified as bearing fibrin-binding moieties.
The amino acid sequence data from these phage isolates were sorted according to the degree of similarity and response in the fibrin ELISA assay.

dried fibrin = target: T2, dried fibrin; experiment: dissociation constant against dried fibrin (free peptide by mass spectrometry); assay type: binding
Experimental: A fibrinogen solution was prepared at 10 mg/ml (or at twice the concentration of fibrin desired) in TBS buffer (50 mM Tris, 150 mM NaCl, pH 7.4). The fibrinogen solution typically contained ˜17 mM citrate. Subsequently, a solution was prepared containing 2 U/ml thrombin, 20 mM CaCl2, and 5 mM ε-aminocaproic acid in TBS. The fibrinogen solution and thrombin solution were mixed 1:1 in the wells of a 96-well plate, aliquoting 50 μL of each solution in each well (total volume=100 μL). The plates were evaporated to dryness overnight at 37° C. The polypeptide to be tested, dissolved in water, was added to each well at concentrations between 1-200 μM. A typical binding assay contained 24 points at concentrations of 2, 4, 6, 8, 10, 12, 14, 17, 20, 23, 26, 30, 35, 40, 45, 50, 60, 70, 80, 100, 125, 150, 175, and 200 μM. The plate containing the peptide and (rehydrated) dried fibrin was covered and incubated at 37° C. on a shaker table for 2 hours.
The supernatant in each well was removed by pipette and the concentration of the polypeptide was measured by mass spectrometry. The ion current detected at the mass of the peptide was monitored after injection of a sample into the mass spectrometer. The area-under-the-peak was quantitated and compared to standards of known concentration. The concentration of peptide in the supernatant is equal to the concentration of free peptide. The concentration of bound peptide was determined by subtracting the concentration of free peptide from the total (starting) concentration. A plot of [Bound Peptide] vs. [Free Peptide] was used to determine the Kd and the concentration of bound peptide at saturation. The curve was fit to the equation: [Bound]=N×[Free]/(Kd+[Free]) where [Bound] is the concentration of bound polypeptide, [Free] is the concentration of free polypeptide, Kd is the dissociation constant (equal to the reciprocal of Ka) and N is the concentration of binding sites. The number of binding sites per fibrin molecule was equal to the lo concentration of binding sites determined by the [Bound Polypeptide] vs. [Free Polypeptide] plot, divided by the concentration of fibrin (15 μM) used in the assay.

DD(E) = target: T3, DD(E) (Homo sapiens, UniProt P02671+P02675+P02679); experiment: dissociation constant against fibrin-derived polypeptide DD(E); assay type: binding; conditions: read-out: Kd DD(E)
T3 construct: host or cells: purchased fibrinogen clotted with thrombin, digested with plasmin, then purified by ammonium sulfate cuts and Sephacryl S200
Experimental: The soluble fibrin-derived polypeptide DD(E) was prepared following a modification of a published method (Moskoitz and Budzynksi, Biochemistry, 33: 12937-12944 (1994) and references therein). Fibrinogen containing a Factor XIII trace impurity (1 g, Grade L; purchased from American Diagnostica) was dissolved in TBS buffer and dialyzed overnight against TBS containing 5 mM citrate. The fibrinogen concentration was adjusted to 3.0 mg/ml and CaCl2 was added to a concentration of 10 mM. Clotting of the fibrinogen was initiated by the addition of thrombin to 0.5 U/ml and the clot was incubated for 3 hours at 37° C. The clot was cut up with a spatula to release water and to concentrate the clot. The clot pieces were washed twice with TBS.Ca buffer (TBS containing 2 mM CaCl2) and were centrifuged at 4,000×g to compact the clots between washes. The clot material was resuspended in 250 ml TBS containing 25 mM CaCl2 and 2 K.I.U. plasmin per mg fibrin. The clots were digested overnight at 20° C. Undigested clot was removed by pipette, and the supernatant was shaken with 10 ml of Lysine Sepharose (Pharmacia) for 30 minutes and filtered to remove the resin. Aprotinin was added to the filtrate to a concentration of 500 U/μL. Ammonium Sulfate was added to 30% saturation and the precipitated protein was removed by centrifugation. More ammonium sulfate was added to the supernatant to a final concentration of 50% saturation, and the precipitated protein was concentrated by centrifugation. The pellets, containing DD(E), were resuspended in a small volume of buffer (50 mM Tris, 150 mM NaCl, 2 mM CaCl2) (<10 ml) and chromatographed on a Sephacryl S200 (Pharmacia) size exclusion column (5×100 cm) in the same buffer. Fractions of protein eluted from the column were assayed by SDS-PAGE for DD(E). DD(E) contains subunits of 55 kD (Fragment E) and 190 kD (Fragment DD). […]
Dissociation constants were determined against DD(E) as described above.

[1] = target: DD(E) soluble fibrin-derived polypeptide (UniProt P02671); experiment: Kd against DD(E) target, 'as described above'

Molecule	relative binding (fibrin)	Kd (dried fibrin) [µM]	Kd (DD(E)) [µM]	other results
8 (RPCDYYGTCFD; synthetic fibrin binding peptide) [compound 8]	+ + +			
CC(C)CC(N)C(=O)N1CCCC1C(=O)NC1CSSCC(C(=O)NC(CC(C)C)C(=O)NC(CC(=O)O)C(N)=O)NC(=O)C(C(C)O)NC(=O)CNC(=O)C(Cc2ccc(O)cc2)NC(=O)C(Cc2ccc(O)cc2)NC(=O)C(CC(=O)O)NC1=O (stereo not drawn) [SEQ ID NO: 9, LPCDYYGTCLD]		2.7	2.6	
5 (RSCNYYGTCLH; synthetic fibrin binding peptide) [compound 5]	+ + +			
H-LPSDYYGTSLD-NH2 [compound 38]		> 100	> 100	
CC(C)C[C@H](NC(=O)[C@@H]1CSSC[C@H](NC(=O)[C@H](C)NC(=O)[C@@H](N)Cc2ccccc2)C(=O)N[C@@H](Cc2c[nH]cn2)C(=O)N[C@@H](Cc2ccc(O)cc2)C(=O)N[C@@H](Cc2ccc(O)cc2)C(=O)NCC(=O)N[C@@H]([C@@H](C)O)C(=O)N1)C(=O)N[C@@H](Cc1c[nH]cn1)C(N)=O [SEQ ID NO: 7, FACHYYGTCLH] (H-FACHYYGTCLH-NH2; disulfide 3-9)		23	7.3	
CC(C)C[C@H](NC(=O)[C@@H]1CSSC[C@H](NC(=O)[C@@H]2CCCN2C(=O)[C@@H](N)CC(C)C)C(=O)N[C@@H](CC(=O)O)C(=O)N[C@@H](Cc2ccc(O)cc2)C(=O)N[C@@H](Cc2ccc(O)cc2)C(=O)NCC(=O)N[C@@H](C)C(=O)N1)C(=O)N[C@@H](CC(=O)O)C(N)=O [SEQ ID NO: 46, LPCDYYGACLD] (H-LPCDYYGACLD-NH2; disulfide 3-9)		> 100	> 100	
4 (YYGT; recurrent motif among synthetic fibrin binding peptides) [compound 4]	+ + +			
9 (LPCDYYGTCLD; synthetic fibrin binding peptide) [compound 9]	+ + +			
CC(C)C[C@H](NC(=O)[C@@H]1CSSC[C@H](NC(=O)[C@@H]2CCCN2C(=O)[C@@H](N)CC(C)C)C(=O)N[C@@H](C)C(=O)N[C@@H](Cc2ccc(O)cc2)C(=O)N[C@@H](Cc2ccc(O)cc2)C(=O)NCC(=O)N[C@@H]([C@@H](C)O)C(=O)N1)C(=O)N[C@@H](CC(=O)O)C(N)=O [SEQ ID NO: 42, LPCAYYGTCLD] (H-LPCAYYGTCLD-NH2; disulfide 3-9)		23	5.9	
10 (FSCWYSLHCHR; synthetic fibrin binding peptide) [compound 10]	+ + +			
6 (HDCQYYGTCLH; synthetic fibrin binding peptide) [compound 6]	+ + +			
7 (FACHYYGTCLH; synthetic fibrin binding peptide) [compound 7]	+ + +			
NHGCYNSYGVPYCDYS (peptide, not shown: large carriers)				Kd [1]: 2.7 µM
WFHCPYDLCHIL (peptide, not shown: large carriers)				Kd [1]: 1.4 µM
RFLCYDSYYHWWCSHH (peptide, not shown: large carriers)				Kd [1]: 10 µM
QWECPYGLCWIQ (peptide, not shown: large carriers)				Kd [1]: 0.74 µM
